What was measured:
[1] = target: nectin-1 (human (endogenous in primary tonsil epithelial cells)) (UniProt Q15223)
[2] = target: nectin-1 (human (endogenous in primary tonsil epithelial cells)) (UniProt Q15223); remark: listed apart in the source

UniProt Q15223, sequence (Q15223 31-517): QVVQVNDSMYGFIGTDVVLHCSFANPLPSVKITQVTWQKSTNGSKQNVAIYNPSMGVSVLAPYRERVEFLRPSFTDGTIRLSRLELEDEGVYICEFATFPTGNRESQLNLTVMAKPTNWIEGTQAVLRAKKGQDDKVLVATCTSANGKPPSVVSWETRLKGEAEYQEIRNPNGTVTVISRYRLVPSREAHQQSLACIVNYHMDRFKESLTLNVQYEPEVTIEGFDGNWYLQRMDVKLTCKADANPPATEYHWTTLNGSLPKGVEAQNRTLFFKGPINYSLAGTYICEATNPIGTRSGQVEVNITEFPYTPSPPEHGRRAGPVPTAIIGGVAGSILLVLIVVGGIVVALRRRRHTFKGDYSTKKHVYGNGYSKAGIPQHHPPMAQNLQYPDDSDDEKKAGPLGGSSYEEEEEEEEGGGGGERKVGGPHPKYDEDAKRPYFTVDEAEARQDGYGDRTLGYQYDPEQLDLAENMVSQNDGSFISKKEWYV

Q: For “truncated form of HSV-1 gD ectodomain gD(306t) (domain or fragment)”, which HSV-1 infection (percent of infected cells, 24 h) of polarized tonsil cells treated with active tat/gp120 or HIV virions; reduction by preincubation with anti-nectin-1 antibody CK-8 (10 µg/ml) [1] is on record?
A: 70%

Q: What about the HSV-1 plaque numbers in polarized tonsil cells treated with active tat/gp120; reduction by anti-gD antibodies (10 µg/ml) [2] of the same substance?
A: 30%

Q: And the HSV-1 plaque numbers in polarized tonsil cells treated with active tat/gp120; reduction by anti-nectin-1 antibodies (10 µg/ml) [2]?
A: 40%

Q: What about the HSV-1 plaque numbers in polarized tonsil cells treated with active tat/gp120; reduction by the combination of anti-gD and anti-nectin-1 antibodies [2] of the same substance?
A: 60%

Q: And the HSV-1 plaque size (infected cells per plaque, cell-to-cell spread) in polarized tonsil cells treated with active tat/gp120; reduction by anti-gD antibodies (10 µg/ml) [2]?
A: 60%

Q: And the HSV-1 plaque size (infected cells per plaque, cell-to-cell spread) in polarized tonsil cells treated with active tat/gp120; reduction by anti-nectin-1 antibodies (10 µg/ml) [2]?
A: 50%

Q: And the HSV-1 plaque size (infected cells per plaque, cell-to-cell spread) in polarized tonsil cells treated with active tat/gp120; reduction by the combination of anti-nectin-1 and anti-gD antibodies [2]?
A: 70%

Reference: PMC3931628
